The results in this text go back to patent US20060025335A1.

In assay [1] the target is somatostatin receptor 3 (pCMV6c-SSTR3). Kind of assay: cell-based or functional assay.
The target in assay [2] is Myc-tagged UNC5H2 (pMyc-UNC5H2) (human) (UniProt Q8IZJ1). Kind of assay: cell-based or functional assay.
Sequence of UniProt Q8IZJ1 (Q8IZJ1 other isoform, or with tags, fused parts or gaps): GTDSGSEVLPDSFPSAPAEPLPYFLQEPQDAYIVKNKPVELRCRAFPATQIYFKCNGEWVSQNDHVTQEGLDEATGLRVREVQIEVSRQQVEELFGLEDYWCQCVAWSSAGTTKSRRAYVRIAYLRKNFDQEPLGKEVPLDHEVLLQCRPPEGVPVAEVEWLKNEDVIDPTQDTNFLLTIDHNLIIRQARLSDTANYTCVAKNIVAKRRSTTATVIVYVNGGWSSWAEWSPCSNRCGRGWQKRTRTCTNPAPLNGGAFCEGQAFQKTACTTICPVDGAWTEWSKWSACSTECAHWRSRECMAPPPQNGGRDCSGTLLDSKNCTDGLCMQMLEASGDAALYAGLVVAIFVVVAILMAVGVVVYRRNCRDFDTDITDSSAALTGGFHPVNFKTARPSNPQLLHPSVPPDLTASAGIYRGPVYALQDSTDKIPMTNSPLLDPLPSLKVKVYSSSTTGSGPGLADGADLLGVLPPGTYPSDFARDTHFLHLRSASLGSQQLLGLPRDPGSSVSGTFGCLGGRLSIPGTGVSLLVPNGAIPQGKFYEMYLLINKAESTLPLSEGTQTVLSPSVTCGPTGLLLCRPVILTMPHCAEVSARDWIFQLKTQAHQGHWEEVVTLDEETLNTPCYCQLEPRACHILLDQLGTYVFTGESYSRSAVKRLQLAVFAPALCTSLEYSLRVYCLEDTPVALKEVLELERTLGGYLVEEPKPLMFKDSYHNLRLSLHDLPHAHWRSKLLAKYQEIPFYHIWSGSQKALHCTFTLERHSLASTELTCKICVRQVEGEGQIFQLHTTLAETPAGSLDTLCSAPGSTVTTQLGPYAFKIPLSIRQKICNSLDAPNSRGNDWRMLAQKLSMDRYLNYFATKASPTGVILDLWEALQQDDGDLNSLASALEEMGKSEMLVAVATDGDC

For “somatostatin-14 (from UniProt P61278 89-116) (peptide)”, the decrease in cAMP accumulation in transfected COS7 cells in assay [1] worked out at 32%.
The substance Netrin 1 (R&D Systems) (ligand) gave a cAMP accumulation in transfected COS7 cells, Netrin 1 given before SST-14 in assay [2] of 41%.
